The values below come from patent US7041871.

The test deals with native human CD4 on cells (SupT1 T cell line; human PBL/PBMC) (human) (UniProt P01730). Kind of test: ratio of BIAcore Ka on rCD4 to flow cytometry Ka on nCD4. On the technique in general: SPR reads the build-up and loss of mass on a sensor chip optically.

On to chimeric Leu3a (antibody), for which the Ration of Ka (rCD4/nCD4) was 6.1.
